Test [1] concerns the target eel follicle-stimulating hormone receptor wild-type (eel).

On to “recombinant eel FSH (tethered eel FSH β/α) (ligand)”, for which the EC50 of cAMP accumulation (HTRF) in transfected CHO-K1 cells stimulated with rec-eel FSH, 0.01-1500 ng/mL with eel FSHR-N120Q (eel) was 0.283 µg/mL; with eel FSHR-N272Q (eel), 0.327 µg/mL; with eel FSHR-N288Q (eel), 0.281 µg/mL; in test [1], 0.201 µg/mL.

The record behind these values is paper PMC9655291.
